From the supplement of paper PMC10567573

B1: MNAT1 (parent)
chain: SLREYNDFLEEVEEIVFNLTNNVD
B2: SPOPL (parent)
chain: AKREETKAMESQRAYRFVQGKDWG

Variants of: B1
Experiment: protein stability index of a GFP-peptide fusion (GPS, HEK-293T) (PSI 1-6); higher = more stable
Conditions: c terminus: a fixed tail appended
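Further: lentivirally expressed fusions sorted by FACS into six bins by GFP to DsRed ratio, PSI derived from sequencing read proportions per bin multiplied by bin number.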

| Variant | protein stability index |
| --- | --- |
| TLREYNDFLEEVEEIVFNLTNNVD [S1T] | 1.85 |
| YLREYNDFLEEVEEIVFNLTNNVD [S1Y] | 1.69 |
| ALREYNDFLEEVEEIVFNLTNNVD [S1A] | 2.1 |
| QLREYNDFLEEVEEIVFNLTNNVD [S1Q] | 2.81 |
| WLREYNDFLEEVEEIVFNLTNNVD [S1W] | 2.11 |
| ELREYNDFLEEVEEIVFNLTNNVD [S1E] | 2.03 |
| LLREYNDFLEEVEEIVFNLTNNVD [S1L] | 1.87 |
| MLREYNDFLEEVEEIVFNLTNNVD [S1M] | 1.82 |
| CLREYNDFLEEVEEIVFNLTNNVD [S1C] | 1.72 |
| KLREYNDFLEEVEEIVFNLTNNVD [S1K] | 1.94 |
| RLREYNDFLEEVEEIVFNLTNNVD [S1R] | 2.21 |
| HLREYNDFLEEVEEIVFNLTNNVD [S1H] | 2.24 |
| FLREYNDFLEEVEEIVFNLTNNVD [S1F] | 2.67 |
| PLREYNDFLEEVEEIVFNLTNNVD [S1P] | 3.1 |
| DLREYNDFLEEVEEIVFNLTNNVD [S1D] | 2.62 |
| NLREYNDFLEEVEEIVFNLTNNVD [S1N] | 3.35 |
| VLREYNDFLEEVEEIVFNLTNNVD [S1V] | 2.1 |
| ILREYNDFLEEVEEIVFNLTNNVD [S1I] | 2.23 |
| SLDEYNDFLEEVEEIVFNLTNNVD [R3D] | 2.32 |
| SLTEYNDFLEEVEEIVFNLTNNVD [R3T] | 1.83 |

| Variant | protein stability index |
| --- | --- |
| SLYEYNDFLEEVEEIVFNLTNNVD [R3Y] | 1.86 |
| SLEEYNDFLEEVEEIVFNLTNNVD [R3E] | 2.12 |
| SLQEYNDFLEEVEEIVFNLTNNVD [R3Q] | 2.94 |
| SLCEYNDFLEEVEEIVFNLTNNVD [R3C] | 1.77 |
| SLAEYNDFLEEVEEIVFNLTNNVD [R3A] | 2.58 |
| SLVEYNDFLEEVEEIVFNLTNNVD [R3V] | 1.61 |
| SLWEYNDFLEEVEEIVFNLTNNVD [R3W] | 1.62 |
| SLPEYNDFLEEVEEIVFNLTNNVD [R3P] | 3.52 |
| SLGEYNDFLEEVEEIVFNLTNNVD [R3G] | 2.78 |
| SLLEYNDFLEEVEEIVFNLTNNVD [R3L] | 1.64 |
| SLIEYNDFLEEVEEIVFNLTNNVD [R3I] | 1.69 |
| SLMEYNDFLEEVEEIVFNLTNNVD [R3M] | 1.91 |
| SLKEYNDFLEEVEEIVFNLTNNVD [R3K] | 2.06 |
| SLSEYNDFLEEVEEIVFNLTNNVD [R3S] | 2.55 |
| SLNEYNDFLEEVEEIVFNLTNNVD [R3N] | 2.18 |
| SLHEYNDFLEEVEEIVFNLTNNVD [R3H] | 2.71 |
| SLFEYNDFLEEVEEIVFNLTNNVD [R3F] | 2.6 |
| SLRDYNDFLEEVEEIVFNLTNNVD [E4D] | 2.19 |
| SLRAYNDFLEEVEEIVFNLTNNVD [E4A] | 1.88 |
| SLRCYNDFLEEVEEIVFNLTNNVD [E4C] | 1.95 |

| Variant | protein stability index |
| --- | --- |
| STREYNDFLEEVEEIVFNLTNNVD [L2T] | 3.01 |
| SPREYNDFLEEVEEIVFNLTNNVD [L2P] | 3.72 |
| SKREYNDFLEEVEEIVFNLTNNVD [L2K] | 2.6 |
| SVREYNDFLEEVEEIVFNLTNNVD [L2V] | 2.33 |
| SSREYNDFLEEVEEIVFNLTNNVD [L2S] | 2.71 |
| SAREYNDFLEEVEEIVFNLTNNVD [L2A] | 2.58 |
| SYREYNDFLEEVEEIVFNLTNNVD [L2Y] | 2.36 |
| SFREYNDFLEEVEEIVFNLTNNVD [L2F] | 1.96 |
| SRREYNDFLEEVEEIVFNLTNNVD [L2R] | 3.65 |
| SHREYNDFLEEVEEIVFNLTNNVD [L2H] | 3.09 |
| SQREYNDFLEEVEEIVFNLTNNVD [L2Q] | 2.72 |
| SCREYNDFLEEVEEIVFNLTNNVD [L2C] | 2.67 |
| SNREYNDFLEEVEEIVFNLTNNVD [L2N] | 2.86 |
| SMREYNDFLEEVEEIVFNLTNNVD [L2M] | 2.13 |
| SIREYNDFLEEVEEIVFNLTNNVD [L2I] | 2.31 |
| SDREYNDFLEEVEEIVFNLTNNVD [L2D] | 3.33 |
| SEREYNDFLEEVEEIVFNLTNNVD [L2E] | 3.35 |
| SGREYNDFLEEVEEIVFNLTNNVD [L2G] | 3.08 |
| SWREYNDFLEEVEEIVFNLTNNVD [L2W] | 1.79 |

Variants of: B2
Experiment: as above
Conditions: c terminus: a fixed tail appended

| Variant | protein stability index |
| --- | --- |
| AKREETKAMESQRAYRFVQGKDWD [G24D] | 4.16 |
| AKREETKAMESQRAYRFVQGKDWR [G24R] | 3.73 |
| AKREETKAMESQRAYRFVQGKDWN [G24N] | 3.63 |
| AKREETKAMESQRAYRFVQGKDWI [G24I] | 3 |
| AKREETKAMESQRAYRFVQGKDWS [G24S] | 3.49 |
| AKREETKAMESQRAYRFVQGKDWW [G24W] | 2.27 |
| AKREETKAMESQRAYRFVQGKDWL [G24L] | 2.64 |
| AKREETKAMESQRAYRFVQGKDWK [G24K] | 4.32 |
| AKREETKAMESQRAYRFVQGKDWM [G24M] | 2.54 |
| AKREETKAMESQRAYRFVQGKDWA [G24A] | 3.44 |
| AKREETKAMESQRAYRFVQGKDWY [G24Y] | 2.41 |
| AKREETKAMESQRAYRFVQGKDWH [G24H] | 3.39 |
| AKREETKAMESQRAYRFVQGKDWP [G24P] | 2.45 |
| AKREETKAMESQRAYRFVQGKDWF [G24F] | 1.81 |
| AKREETKAMESQRAYRFVQGKDWT [G24T] | 2.96 |
| AKREETKAMESQRAYRFVQGKDWV [G24V] | 2.91 |
| AKREETKAMESQRAYRFVQGKDWE [G24E] | 3.24 |
| AKREETKAMESQRAYRFVQGKDWC [G24C] | 2.18 |

| Variant | protein stability index |
| --- | --- |
| AKREETKAMESQRAYRFVQGKDWQ [G24Q] | 4.07 |
| AKREETKAMESQRAYRFVQGKDQG [W23Q] | 4.8 |
| AKREETKAMESQRAYRFVQGKDEG [W23E] | 5.14 |
| AKREETKAMESQRAYRFVQGKDKG [W23K] | 4.87 |
| AKREETKAMESQRAYRFVQGKDSG [W23S] | 4.91 |
| AKREETKAMESQRAYRFVQGKDPG [W23P] | 4.79 |
| AKREETKAMESQRAYRFVQGKDIG [W23I] | 4.18 |
| AKREETKAMESQRAYRFVQGKDNG [W23N] | 3.65 |
| AKREETKAMESQRAYRFVQGKDRG [W23R] | 4.49 |
| AKREETKAMESQRAYRFVQGKDHG [W23H] | 4.77 |
| AKREETKAMESQRAYRFVQGKDYG [W23Y] | 4.05 |
| AKREETKAMESQRAYRFVQGKDTG [W23T] | 4.86 |
| AKREETKAMESQRAYRFVQGKDFG [W23F] | 3.53 |
| AKREETKAMESQRAYRFVQGKDMG [W23M] | 4.86 |
| AKREETKAMESQRAYRFVQGKDGG [W23G] | 4.88 |
| AKREETKAMESQRAYRFVQGKDVG [W23V] | 4.72 |
| AKREETKAMESQRAYRFVQGKDLG [W23L] | 4.21 |
